Series [1] deals with T1, RcsB wild-type (Salmonella Typhimurium, UniProt P58663 1-216).
T1 sequence: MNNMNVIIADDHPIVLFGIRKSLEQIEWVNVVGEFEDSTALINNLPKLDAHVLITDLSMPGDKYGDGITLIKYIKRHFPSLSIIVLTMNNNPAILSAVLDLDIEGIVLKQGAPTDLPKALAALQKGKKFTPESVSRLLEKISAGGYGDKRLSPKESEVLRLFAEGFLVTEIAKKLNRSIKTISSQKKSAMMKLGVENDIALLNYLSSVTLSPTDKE
As to the kind of experiment: EMSA.

For series [2], the target named is T1, RcsB wild-type. The series can be described thus: EMSA. The source holds these as a separate data set.
Series [3] concerns the target T1, RcsB wild-type. As to the kind of experiment: EMSA. The source holds these as a separate data set.
The target of series [4] is T1, RcsB wild-type. As to the kind of experiment: crystal structure.
The series “crystal structure” concerns the molecule itself. The series can be described thus: crystal structure.
Another series has as its target T2, RcsB-L108A (Salmonella Typhimurium, UniProt P58663 1-216, L108A).
T2 sequence: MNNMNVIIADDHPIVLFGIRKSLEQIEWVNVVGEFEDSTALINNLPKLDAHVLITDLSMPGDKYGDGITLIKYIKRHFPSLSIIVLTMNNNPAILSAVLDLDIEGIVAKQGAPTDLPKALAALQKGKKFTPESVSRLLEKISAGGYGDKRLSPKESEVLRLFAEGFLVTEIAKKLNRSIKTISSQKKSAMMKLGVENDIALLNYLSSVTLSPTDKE
The series can be described thus: EMSA.

Broadly, the stoichiometry N is a count of units in the complex or per binding partner.

B1: P1flhDC first GGA to AGA (dsDNA)
DNA 1: CGAATTAAGAAAAATCTTAGGCG
DNA 2: CGCCTAAGATTTTTCTTAATTCG
In the case of B1, in the series with RcsB wild-type [1], the binding result is listed as “binds”.

B2: P1flhDC second AGA to AGG (dsDNA)
DNA 1: CGAATTAGGAAAAACCTTAGGCG
DNA 2: CGCCTAAGGTTTTTCCTAATTCG
B2: in the series with RcsB wild-type [2], the binding result was “binds”.

B3: nlpD (dsDNA)
DNA 1: ACCTTTCGGAATATTCCCATACT
DNA 2: AGTATGGGAATATTCCGAAAGGT
For B3, the binding result in the series with RcsB wild-type [3] is “binds”.

B4: ytfK (dsDNA)
DNA 1: GATGTTTAGATAATTCTGAATAA
DNA 2: TTATTCAGAATTATCTAAACATC
For the molecule B4, the binding result with RcsB wild-type [3] is “binds”.

B5: PrprA (dsDNA)
DNA 1: CCTATTGAGACGAATCTGATCGG
DNA 2: CCGATCAGATTCGTCTCAATAGG
For the molecule B5, the binding result in the series with RcsB wild-type [4] was “binds”.

B6: flgA (dsDNA)
DNA 1: GTTAATAAGAATATTCCCATCAG
DNA 2: CTGATGGGAATATTCTTATTAAC
For the molecule B6, the binding result in the series with RcsB wild-type [3] was “binds”.

B7: osmB (dsDNA)
DNA 1: CTCTCTAAGACTTTTCTGACATC
DNA 2: GATGTCAGAAAAGTCTTAGAGAG
For the molecule B7, in the series with RcsB wild-type [3], the binding result is given as “binds”.

B8: RcsB from S. Typhimurium, full-length wild-type, bound to phosphomimetic BeF3- (natural protein, UniProt P58663 1-216, looked up)
chain: MNNMNVIIADDHPIVLFGIRKSLEQIEWVNVVGEFEDSTALINNLPKLDAHVLITDLSMPGDKYGDGITLIKYIKRHFPSLSIIVLTMNNNPAILSAVLDLDIEGIVLKQGAPTDLPKALAALQKGKKFTPESVSRLLEKISAGGYGDKRLSPKESEVLRLFAEGFLVTEIAKKLNRSIKTISSQKKSAMMKLGVENDIALLNYLSSVTLSPTDKE
modifications: phosphomimetic BeF3- bound in the active site (phosphorylatable residue D56)
Take B8: in “crystal structure”, the “stoichiometry N” value amounted to 2.

B9: P1flhDC (dsDNA)
DNA 1: CGAATTAGGAAAAATCTTAGGCG
DNA 2: CGCCTAAGATTTTTCCTAATTCG
Consider B9, for which, in the series with RcsB-L108A, the binding result is reported as “no binding”.
